Source: ChEMBL document CHEMBL2074511, “Molecular cloning and pharmacological characterization of rat multidrug resistance protein 1 (mrp1)” (Drug Metab Dispos, 2003)

Substrate: CCCCC/C=C\C\C=C/C=C/C=C/[C@@H](SC[C@@H](NC(=O)CC[C@H](N)C(=O)O)C(=O)NCC(=O)O)[C@@H](O)CCCC(=O)O
Test: cells, lysate or membranes named

B1: Multidrug resistance-associated protein 1 (Mus musculus) (protein)
chain: MALRSFCSADGSDPLWDWNVTWHTSNPDFTKCFQNTVLTWVPCFYLWSCFPLYFFYLSRHDRGYIQMTHLNKTKTALGFFLWIICWADLFYSFWERSQGVLRAPVLLVSPTLLGITMLLATFLIQLERRKGVQSSGIMLTFWLVALLCALAILRSKIISALKKDAHVDVFRDSTFYLYFTLVLVQLVLSCFSDCSPLFSETVHDRNPCPESSASFLSRITFWWITGMMVHGYRQPLESSDLWSLNKEDTSEEVVPVLVNNWKKECDKSRKQPVRIVYAPPKDPSKPKGSSQLDVNEEVEALIVKSPHKDREPSLFKVLYKTFGPYFLMSFLYKALHDLMMFAGPKILELIINFVNDREAPDWQGYFYTALLFVSACLQTLALHQYFHICFVSGMRIKTAVVGAVYRKALLITNAARKSSTVGEIVNLMSVDAQRFMDLATYINMIWSAPLQVILALYFLWLSLGPSVLAGVAVMILMVPLNAVMAMKTKTYQVAHMKSKDNRIKLMNEILNGIKVLKLYAWELAFQDKVMSIRQEELKVLKKSAYLAAVGTFTWVCTPFLVALSTFAVFVTVDERNILDAKKAFVSLALFNILRFPLNILPMVISSIVQASVSLKRLRIFLSHEELEPDSIERRSIKSGEGNSITVKNATFTWARGEPPTLNGITFSIPEGALVAVVGQVGCGKSSLLSALLAEMDKVEGHVTLKGSVAYVPQQAWIQNDSLRENILFGHPLQENYYKAVMEACALLPDLEILPSGDRTEIGEKGVNLSGGQKQRVSLARAVYSNSDIYLFDDPLSAVDAHVGKHIFEKVVGPMGLLKNKTRILVTHGISYLPQVDVIIVMSGGKISEMGSYQELLDRDGAFAEFLRTYANAEQDLASEDDSVSGSGKESKPVENGMLVTDTVGKHLQRHLSNSSSHSGDTSQQHSSIAELQKAGAKEETWKLMEADKAQTGQVQLSVYWNYMKAIGLFITFLSIFLFLCNHVSALASNYWLSLWTDDPPVVNGTQANRNFRLSVYGALGILQGAAIFGYSMAVSIGGIFASRRLHLDLLYNVLRSPMSFFERTPSGNLVNRFSKELDTVDSMIPQVIKMFMGSLFSVIGAVIIILLATPIAAVIIPPLGLVYFFVQRFYVASSRQLKRLESVSRSPVYSHFNETLLGVSVIRAFEEQERFIHQSDLKVDENQKAYYPSIVANRWLAVRLECVGNCIVLFAALFAVISRHSLSAGLVGLSVSYSLQITAYLNWLVRMSSEMETNIVAVERLKEYSETEKEAPWQIQETAPPSTWPHSGRVEFRDYCLRYREDLDLVLKHINVTIEGGEKVGIVGRTGAGKSSLTLGLFRINESAEGEIIIDGVNIAKIGLHNLRFKITIIPQDPVLFSGSLRMNLDPFSQYSDEEVWMALELAHLKGFVSALPDKLNHECAEGGENLSVGQRQLVCLARALLRKTKILVLDEATAAVDLETDNLIQSTIRTQFEDCTVLTIAHRLNTIMDYTRVIVLDKGEVRECGAPSELLQQRGIFYSMAKDAGLV
- Km: 0.05 µM
